Experiment: soluble on expression in E. coli; label from the status in PepcDB or PDB records

Sequence	soluble on expression in E. coli
MSLVMDSLIIKQLIKSTFDIPLQVTYPNGNIETYNGSNPHVKLKLNKNFSVSELSKDPSIVLGEAVMDGDIEIYGSIQELILSAYRCGDSFLRNSKFSKLIPKQFHDKKHSKSDIQKHYDIGNDFYKLWLDDTMTYSCAYFKHENDSLEQAQLNKVHHILNKLNAQPGGKLLDIGCGWGTLIITAAKEYGLNATGITLSEEQASFITKRIKEEGLENKVTVLIKDYRDIRETYDYITSVGMFEHVGKENLSQYFQTISKRLNINGLALIHGITGQVGGNHGSGTNSWINKYIFPGGYIPRLTENLNHIASAGLQIADLEPLRRHYQKTLELWTKNFHNALPEVQKTHDKRFINMWDLYLQSCAASFESGNIDIFQYLLSKGVSKDTMPMTRDYMYSANEGHHHHHH	soluble
MRKILVVGAGQSGLQLALGLQSHGYEVTLMSNRTADEIRTGRVMSTQCMFHTALQHERDLQLNFWESQAPKIEGLGVSVAAPGSFDPGPSQRAIDWLGHLDGFAQSVDQRVKMAGWMETFAQRGGQLVIHGAAVGDLDYFSRAYDLVLVSAGKGELVQMFGRDAERSPYSEPQRALAVAYVHGMGPRPEHPETEAVRCNLVPGVGEMFIMPTFTTSGRADILFWEGIPGGPLDAFKDVKDPAEHLSLTLELMEKFLPWEYARATKVELTDAGGTLAGRYAPTVRNPVGRLPGGGAVLGVADVVVANDPITGQGSNSASKCAASYLASIIEHGDQEFDETWMRQTFDRYWETAQHVTKWTNTMLAPPPEHILNLFGAATQLQPIADRFANGFNDPSDFENFFYDPAKTEGYLAEVSGAAGALEHHHHHH	not soluble
MAPFSPASSDVLVIGGGPSGTALSAELAARGLDVQQLAPHPPRPFPATYGAWLGDLPTWARGCAEQVWTDVRAYTGPQPTSLGQPYALLDNAALLRTLRGLADWTWVEGAALHAERSGAGWTVYGAGGERWQTRLVVDASGHGALVSPVRFPGGAALQTAYGVVARFRRPPVTPGSMVWMDYRTPAPELKRGEATFLYAMHLGGDRYFVEETSLIARPAPTRAELRRRLLARLSAQGTPPHATESEEWVAFPMNAQAPAPGGVLAYGAAAGRVHPVSGFQVAGALSDAPGVATAIATALCQGKDAAAAGWAALWSPERRAAREVHLLGVGALLGLERAELPHFFGTFFGLPREQWARFLHPDTDAGTLARTMLRVFAQTGGRVRLPLARAALAQPAASGRALAAAAGLKILEHHHHHH	not soluble
HFVIRSPEDGANLVMEDMRFLTQEHFVCLYLNTKNQVIHKRTVFIGSLNSSIVHPREVFKEAFKRSAASFICVHNHPSGDPTPSREDIEVTRRLFECGNLIGIELLDHLVIGDKKFVSLKEKGYL	not soluble
SLENYWVDERTLVVSGDFFGVSTGLLGGWKRVRHAFNHTVSEEFHSMEPAEYLRKVARGYGLKSYFGLLTSVPIEKLSVKGCGEVTVFATAGVMNPNERVGTINIIAVFECRMSRAAMLNAIITATEAKTKALLEEGHNFTGTNTDAVVVLCTQKGGYHRYCGPASEVGQKLWRCAGEAVKDSLARW	soluble
MGHHHHHHSHMKEPLDGECGKAVVPQQELLDKIKEEPDNAQEYGCVQQPKTQESKLKIGGVSSVNERPIAQQLNPGFQLSFASSGPSVLLPSVPAVAIKVFCSGCKKMLYKGQTAYHKTGSTQLFCSTRCITRHSSPACLPPPPKKTCTNCSKYKILNIPFYFTFF	not soluble
MGSDKIHHHHHHMRVSQRVVMSMTTPIDQFKGKQLDIINWWRRYPDKQTIIADGAVRSGKTFAMSISYVLWSMIVFDREQFGIAGKTIGSLRRNVIRPLKQTLQQVGFSVVDRRSENMLEISLDGRTNLYYLFGGKDESSQDLIQGITLAGMFFDEAALMPQSFVNQATARVSVTGGKYWFNMNPEGPYHWFKTDWIDQADDKRALRLHFVMTDNPSLSDEVIDRYEHMYSGVFYQRYILGQWVLADGIVYDNFDKDEMVSNPSQQPSRYYVSVDYGTQNPTVFLLWGKCGSVWYCLKEYYYDGRHSSRQKTDDEYARDFSQFVGDIRCEVIVDPSAASFIVKLRERRYRVIKADNDVLNGIRETQTAMNSGEIKFTPGLTNLFKEFASYVWDDKASQKGEDKVVKAHDHAMDAMRYFVMQVIKRRNAAHTFKNTSKYF	not soluble
MSLDASQGGEQQSFSWDNATVYFAITDRFHDGNPSNNQSYGRPQEDAWGQNIGTFHGGDLQGLTDKLNEGYFTELGINAIWITAPYEQVHGWVGGGSDGDFAHYAYHGYYALDYTMIDQNMGTVEDMREFVHTAHEQGIRVVLDVVMNHPGYNTIKDMHEYGFGNPGVSEHWTPGQGQNWHDVHQQINYEDAGAWRHWWGPWIRAGIAGYESCGNSEITMCLAGLPDFRTELTHSVGLPPLLETKWNQERQGGYEDWIVPAANDLRRDLGVAPADYIVKWLSAWVEEFGIDGFRVDTAKHVELSRWQQLKDAANEALWKWREENPEAPGANWTDDFWMVGEVWGHGVGRSEYFDHGFDSVINFTFQGEHGNGPAYRLDTMESTFSRYANAINTDSTFNVLSYLSQHDTQLYPRERLIDGGTYLMLLPGGVQVFYGDETARPFGPTGSDPHQGTRSSMNWDSVNEEVLHHWQKMGQFRSNHLAVGAGEHRQIAASPYTFSRTYVEGDVDDRVVVVVGASGETTIDVSSVFSDGQQVRDFYTGNVTVVENGHVTFPAHRNGVILIERAGDEGHHHHHH	soluble
MTGALNQAQKTPWRYGFLNLMRRVDAQLCDTPAGSIWQPRMEKFRLGQTPTMTFAPREIAQVSWQDGRLHLSLYSLGLWGPNGPLPLHYTELALNRSESRHDPTLVHFSNIFHHRWLTQFWQAWRSAQSAGGGLDKPEHDRFAFYIASLSGQDLRESAESPLSDHVRLAASAHLVRESRNPDGLAATLAHYFSVPFAVKEFALHWITVANDEITRLGTPAQSSVLGNGALIGQAVPDMQYKFRLIIGPLTLEDYLRFLPGGNNLPVLTELVRTFIGFEYCWEIELQLKPHAAPPAVIGGAQRLGWTAWAGKAMHDRPVTGMIFEPEHGLTH	not soluble
GHHHHHHEAIAKRLDACQDQLLELYEENSIDIHKHIMHWKCIRLESVLLHKAKQMGLSHIGLQVVPPLTVSETKGHNAIEMQMHLESLAKTQYGVEPWTLQDTSYEMWLTPPKRCFKKQGNTVEVKFDGCEDNVMEYVVWTHIYLQDNDSWVKVTSSVDAKGIYYTCGQFKTYYVNFNKEAQKYGSTNHWEVCYGSTVICSPASVSSKKKK	soluble
MSLTSLVSAVGSHHVTTDPDVLAGRSVDHTGRYRGRASALVRPGSAEEVAEVLRVCRDAGAYVTVQGGRTSLVAGTVPEHDDVLLSTERLCVVSDVDTVERRIEIGAGVTLAAVQHAASTAGLVFGVDLSARDTATVGGMASTNAGGLRTVRYGNMGEQVVGLDVALPDGTVLRRHSRVRRDNTGYDLPALFVGAEGTLGVITALDLRLHPTPSHRVTAVCGFAELAALVDAGRMFRDVEGIAALELIDGRAAALTREHLGVRPPVEADWLLLVELAADHDQTDRLADLLGGARMCGEPAVGVDAAAQQRLWRTRESLAEVLGVYGPPLKFDVSLPLSAISGFARDAVALVHRHVPDSPEALPLLFGHIGEGNLHLNVLRCPPDREPALYAKMMGLIAECGGNVSSEHGVGSRKRAYLGMSRQANDVAAMRRVKAALDPTGYLNAAVLFDEGHHHHHH	not soluble
GMAQRSILVGQIWHEGHSFNPILTREKDFLFLRGEAVLEEARASSTALSGIVKTAEALGYRCVPSISARARPGGAIEQKVFDNIVDEFVQAARMQDFDAICLDLHGATLAEHTLDTEGYLLSRLREVVGNDIMISLALDLHAYLTPQMVEQATIITSFRTTPHADIEETGVRAMTLLDSLSNETRPPRAIYSLIPFLTRGNDETWSGPLAEIGAAADRWRARSDVVDLSIFNVHPFLDVPGYGQVVLAYDNGSGAAIDACRDLSDMLWKARDEFQEQLMSVDKALEIARTSRQLLALGDQGDRVMGAGPGDSPEIARVALEHFPGLKVAVPVYDPQAVRTAREAGENATVRMAVGGAFTHSVAPLERDWTVRKLCRARFTNIGPYMAGTEADFGDAAVLTCDAVTVIVTTMAPNVHDPAFYEAVGVPLASQQAVVARAANHYKLSFADIARTITVDTPGLTAFKPHQFPFTQARPFYPLDIVQWSFAPLECNKVG	soluble
MAHHHHHHMTMAVDSHDPSVRYLFFEEQRQQKQQKQQVPVDGTSSGSLPLLYSARPACHPVDDVRSAAALRRITEGFLNLDQQMKMWRRHLHRKLGNLESRLSRCESVLLQKKTPVPQPAVVKASTTTYNDIYDGVEDEFKRLHLTVTALREKAAECCRDGQSFFPPKRQGKKGKGEPAGKHAMCDDEDVSIEGGGVFDSHCEHVGVAKRMSPTADTTAVGSGESVGLTPDGAEMPSACLFLGETVVDGDWQHVEGMQPREASCCLYKLQNQSSFQPTPSFSTMTPVSEQKYFAMDSTCRHDWSPFIHEPCRPEKRIVRGGKPATMDKTPTNVPDLRMRSTATTTQEKCCEINESPLVQASSLERRLIYSPETPKRMQGQVSPVPSDAARSASSSTKRGMEIPLSNADSVEHLHNLAEPALSSKPVTNGQKRPDATPSSQHGGAFVDAFASAVAGVPSSSPLYVLPQQIYSSRGNSCDRSSEWDNTEDEEKASESSNEEVLSAVALSMPTVGTVWQRVVSLAHAEQYYDQLSRLNHPPLSMLSSDTLEISELTVQET	not soluble
MGSDKIHHHHHHMEKEMLTFDITNDFIVGDRITKETLNKYSKLPHKIKAGLFLLCVEGSVQASINLAKYTINKYDFVTLVPSNFIQFHEISDDARFYFAGFSSEFMTNINFIKSTMSFLPVITEHPIMPLEESVAQLYIDGYRLLIRAQSLSPSYSMVNKNLVIAYLTIFMQGTAELYKNHSHWTNGIRTRTNEIYRKFIQLVVEHYTTEHSVSFYAAQLNLSLPHFCTTIKKAIGLTPLEIISSIITMDAKAQLRSTDLTVKEIAFSLGFNNLSFFNKYFRQHTGMTPQEYRRMKIPSST	not soluble
MARFSGKVALITGSSNGIGRAAAILFAQQGAKVTITGRNAERLKETRHEIKKSGIPAENILAIVADVITDEGQMRLINDTVRKFGHLDILVNNAGGALMDAQGRVGMDQDISVFDNTMQINMRSVVTLVQKAKEHLIKSKGEIINVSAMAAGHHGDPIATFYGMSKAALDQFTRSSAISLIQHGVRVNSVSPGFTKTGFGEAMGFPPIAMKKVISFYESHKECAPSGAIAQPGDIAQVILFLADRTMSSYIIGQSIIADGGSSLVMGMHAHDMLDILKA	not soluble
MSVTLHTTSGDIKIELYVDDAPKACENFLALCASDYYNGCIFHRNIKDFMVQTGDPTHSGKGGESIWGGPFEDEFVSALKHDSRGCVSMANNGPDSNRSQFFITYAKQAHLDMKYTLFGKVIDGFDTLEEIETIKVDNKYRPLVQQK	not soluble
MGSDKIHHHHHHMIDFLLLKSLHSLLGLTITVCDQNFSVIREYKSEKTISLFYNHYLILSNFSKTQHDFLFHYGSLGELFLVHHIQQYYIIIGPWRSNVIDPLLLKKKLTETQINASEQDYFIDRLSQLPFFSLSQIRELLIVTNYCLTGVVKDKLSEPLHYYTKGWSNSFDLDKIKQFSKQNMSSYKYQYHFENNILKAVKSGSEFLLKETVEQFSNSIVPIISGDELRSEKNYSIMIYDRLSQATIQAGLDIETAYRARDRFIKENESTISLNEVLKLRDTAILFYTQQVHSLKKHLETPHSQTIVAVIRYLENNLNRFIKTEEIAKECHMSESKLRKLFKQEKHITIQQYFLNLKIEAAKQLLDENKKVEEVSNLLGFSTSSNFSRTFKKIVGISPLEYKQKPKTI	not soluble
MIEIEINNAQEITSALERLAQATAHRAPLMRSIAGTMESAVAQNFEVGGRPAWKKLKIRQGTPLVDTENLMASITSEYNNNEAIVGTNEPYAAIHQFGGKAGRGRKVAIPARPFLILTPQDEADILEDIQDYFQLLIK	not soluble
